The target in test [1] is T1, BRCTtide-7pS, GAAYDI-pS-… (Artificial Sequence).
T1 sequence (peptide, phosphoserine (pS) at position 7): GAAYDISQVFPFAKKK
Kind of test: isothermal titration calorimetry, peptide injected into GST-PTIP BRCT domains.

The target of test [2] is T2, BRCTtide-7pT, GAAYDI-pT-… (Artificial Sequence).
T2 sequence (peptide, phosphothreonine (pT) at position 7): GAAYDITQVFPFAKKK
The description is as above.

Test [3] concerns the target degenerate peptide library GAXXXB(pS/pT)QJXXXAKKK (SEQ ID NO: 62). Kind of test: GST-(BRCT)2 on glutathione beads, soluble degenerate library, Edman sequencing of bound peptides.
Test [4] concerns the target degenerate peptide library GAXXXXpSXXFXXAYKKK (SEQ ID NO: 59). Described as above.
Test [5] concerns the target degenerate peptide library Met-Ala-X-X-X-X-pSer-X-X-X-X-X-Ala-Lys-Lys-Lys (SEQ ID NO: 58). The test is described as above.
Test [6] concerns the target degenerate peptide library MAXXXXpTXXXXAKKK (SEQ ID NO: 47). The test is described as above.
The target in test [7] is GST-Plk1 (full-length), prepared in SF9 cells (human).
Test [8] concerns the target degenerate peptide library MAXXXXpTPXXXXAKKK (SEQ ID NO: 46). Kind of test: GST-PBD on glutathione beads, oriented peptide library screening.
Test [9] deals with degenerate peptide library MAXXXXSpTXXXXAKKK (SEQ ID NO: 48). Described as above.
In test [10] the target is T1, BRCTtide-7pS, GAAYDI-pS-… (Artificial Sequence). In words: isothermal titration calorimetry, peptide injected into GST-BRCA1 BRCT domains.

The values that follow come from patent publication US20110104713A1, “PRODUCTS AND PROCESSES FOR MODULATING PEPTIDE-PEPTIDE BINDING DOMAIN INTERACTIONS” (priority 2002, published 2011).

Non-standard residues stand in square brackets, D forms with d. No end group written: not given here. pT = C[C@@H](OP(=O)(O)O)[C@H](N)C(=O)O

B1: GST-PTIP tandem BRCT domains (residues 550-757) (protein)
chain: TPELTPFVLFTGFEPVQVQQYIKKLYILGGEVAESAQKCTHLIASKVTRTVKFLTAISVVKHIVTPEWLEECFRCQKFIDEQNYILRDAEAEVLFSFSLEESLKRAHVSPLFKAKYFYITPGICPSLSTMKAIVECAGGKVLSKQPSFRKLMEHKQNSSLSEIILISCENDLHLCREYFARGIDVHNAEFVLTGVLTQTLDYESYKFN
Consider B1, for which the dissociation constant Kd was 0.28 µM in test [1] and 14.3 µM in [2]. The selectivity ratio, Phe at (pSer/pThr)+3 in [3] was 7. The selectivity ratio, Ile at pSer+5 in test [4] was 1.9. Moreover, in test [5], the selectivity ratio, Phe at pSer+3 amounted to 2.3. Besides, the selectivity ratio, Ile at pThr-1 in test [6] came out at 2.1.

Consider MAGPMQS[pT]PLNGAKK [PoloBoxtide-optimal, MAGPMQ-S-pT-P-LNGAKK], for which, in test [7], the Plk1 kinase activity towards casein (32P incorporation, SDS-PAGE/autoradiography) was found to be 2.6 fold.

B2: GST-hPlk3 PBD (human Plk3 residues 335-646) (protein)
chain: TPPNPARSLFAKVTKSLFGRKKKSKNHAQERDEVSGLVSGLMRTSVGHQDARPEAPAASGPAPVSLVETAPEDSSPRGTLASSGDGFEEGLTVATVVESALCALRNCIAFMPPAEQNPAPLAQPEPLVWVSKWVDYSNKFGFGYQLSSRRVAVLFNDGTHMALSANRKTVHYNPTSTKHFSFSVGAVPRALQPQLGILRYFASYMEQHLMKGGDLPSVEEVEVPAPPLLLQWVKTDQALLMLFSDGTVQVNFYGDHTKLILSGWEPLLVTFVARNRSACTYLASHLRQLGCSPDLRQRLRYALRLLRDRSPA
As to B2, the selectivity ratio, Ser at pThr-1 in test [8] came out at 3. Moreover, the selectivity ratio, Pro at pThr+1 in [9] worked out at 1.6.

B3: GST-Cdc5p PBD (Saccharomyces cerevisiae Cdc5p residues 357-705) (protein)
chain: EDIPEEQSLVNFKDCMEKSLLLESMSSDKIQRQKRDYISSIKSSIDKLEEYHQNRPFLPHSLSPGGTKQKYKEVVDIEAQRRLNDLAREARIRRAQQAVLRKELIATSTNVIKSEISLRILASECHLTLNGIVEAEAQYKMGGLPKSRLPKIKHPMIVTKWVDYSNKHGFSYQLSTEDIGVLFNNGTTVLRLADAEEFWYISYDDREGWVASHYLLSEKPRELSRHLEVVDFFAKYMKANLSRVSTFGREEYHKDDVFLRRYTRYKPFVMFELSDGTFQFNFKDHHKMAISDGGKLVTYISPSHESTTYPLVEVLKYGEIPGYPESNFREKLTLIKEGLKQKSTIVTVD
As for B3, the selectivity ratio, Ser at pThr-1 in test [8] came to 5.3. Further, the selectivity ratio, Pro at pThr+1 in [9] was found to be 1.4.

B4: GST-hPlk2 PBD (human Plk2 residues 355-685) (protein)
chain: HLSSPAKNFFKKAAAALFGGKKDKARYIDTHNRVSKEDEDIYKLRHDLKKTSITQQPSKHRTDEELQPPTTTVARSGTPAVENKQQIGDAIRMIVRGTLGSCSSSSECLEDSTMGSVADTVARVLRGCLENMPEADCIPKEQLSTSFQWVTKWVDYSNKYGFGYQLSDHTVGVLFNNGAHMSLLPDKKTVHYYAELGQCSVFPATDAPEQFISQVTVLKYFSHYMEENLMDGGDLPSVTDIRRPRLYLLQWLKSDKALMMLFNDGTFQVNFYHDHTKIIICSQNEEYLLTYINEDRISTTFRLTTLLMSGCSSELKNRMEYALNMLLQRCN
Regarding B4, the selectivity ratio, Ser at pThr-1 in test [8] was 7.5. For the same molecule, the selectivity ratio, Pro at pThr+1 in test [9] worked out at 1.7.

B5: GST-BRCA1 tandem BRCT domains (residues 1634-1863) (protein)
chain: REKPELTASTERVNKRMSMVVSGLTPEEFMLVYKFARKHHITLTNLITEETTHVVMKTDAEFVCERTLKYFLGIAGGKWVVSYFWVTQSIKERKMLNEHDFEVRGDVVNGRNHQGPKRARESQDRKIFRGLEICCYGPFTNMPTDQLEWMVQLCGASVVKELSSFTLGTGVHPIVVVQPDAWTEDNGFHAIGQMCEAPVVTREWVLDSVALYQCQELDTYLIPQIPHSHY
Regarding B5, in test [10], the dissociation constant Kd is 0.4 µM. In addition, in [3], the selectivity ratio, Phe at (pSer/pThr)+3 was determined as 7.5. The selectivity ratio, Phe at pSer+1 in test [4] was 2.1. Further, in test [5], the selectivity ratio, Phe at pSer+3 is 2.4. Also, the selectivity ratio, Phe at pThr+3 in test [6] is 1.9.
